This note sets out measurements from article PMC4627070.

The labels stand for the following.
T1: gp32 (gene 32 protein, ssDNA-binding protein) (bacteriophage T4, UniProt P03695 1-301)
T1 sequence: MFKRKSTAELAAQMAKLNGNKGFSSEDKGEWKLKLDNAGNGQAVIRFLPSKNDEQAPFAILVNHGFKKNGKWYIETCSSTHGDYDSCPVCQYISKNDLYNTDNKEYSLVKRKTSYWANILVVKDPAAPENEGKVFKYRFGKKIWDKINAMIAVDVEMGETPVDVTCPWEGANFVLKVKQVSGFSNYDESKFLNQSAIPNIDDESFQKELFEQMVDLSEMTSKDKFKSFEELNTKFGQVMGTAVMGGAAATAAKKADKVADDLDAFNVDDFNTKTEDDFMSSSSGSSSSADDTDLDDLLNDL

B1: 8A2,3 (ssDNA)
DNA: AAAAAAAA
modifications: 2-aminopurine at positions 2,3 (written as A)
B2: 8P6,7 (ssDNA)
DNA: TTTTTAAT
modifications: 2-aminopurine at positions 6,7 (written as A)
B3: 8A6,7 (ssDNA)
DNA: AAAAAAAA
modifications: 2-aminopurine at positions 6,7 (written as A)
B4: 8P2,3 (ssDNA)
DNA: TAATTTTT
modifications: 2-aminopurine at positions 2,3 (written as A)
B5: 8P4,5 (ssDNA)
DNA: TTTAATTT
modifications: 2-aminopurine at positions 4,5 (written as A)

This series has as its target T1, gp32 (gene 32 protein, ssDNA-binding …). The series can be described thus: fluorescence titration.
Take B1: the affinity, expressed as Kd, was 4.1 ± 0.4 µM. Under B2 stands 10.3 ± 1 µM; under B3, 3.2 ± 0.3 µM.

On to B4, for which the equilibrium dissociation constant (Kd) stood at 3.5 ± 0.4 µM. To B5 belongs 4.2 ± 0.4 µM.
